Data reported in patent US20040009175A1.

B1: full-length HA-tagged TAO1 (enzyme, not shown: small tags and cut ends)
chain: MPSTNRAGSLKDPEIAELFFKEDPEKLFTDLREIGHGSFGAVYFARDVRTNEVVAIKKMSYSGKQSTEKWQDIIKEVKFLQRIKHPNSIEYKGCYLREHTAWLVMEYCLGSASDLLEVHKKPLQEVEIAAITHGALQGLAYLHSHTMIHRDIKAGNILLTEPGQVKLADFGSASMASPANSFVGTPYWMAPEVILAMDEGQYDGKVDVWSLGITCIELAERKPPLFNMNAMSALYHIAQNESPTLQSNEWSDYFRNFVDSCLQKIPQDRPTSEELLKHMFVLRERPETVLIDLIQRTKDAVRELDNLQYRKMKKLLFQEAHNGPAVEAQEEEEEQDHGGGRTGTVNSVGSNQSIPSMSISASSQSSSVNSLPDASDDKSELDMMEGDHTVMSNSSVIHLKPEEENYQEEGDPRTRASAPQSPPQVSRHKSHYRNREHFATIRTASLVTRQMQEHEQDSELREQMSGYKRMRRQHQKQLMTLENKLKAEMDEHRLRLDKDLETQRNNFAAEMEKLIKKHQASMEKEAKVMANEEKKFQQHIQAQQKKELNSFLESQKREYKLRKEQLKEELNENQSTPKKEKQEWLSKQKENIQHFQAEEEANLLRRQRQYLELECRRFKRRMLLGRHNLEQDLVREELNKRQTQKDLEHAMLLRQHESMQELEFRHLNTIQKMRCELIRLQHQTELTNQLEYNKRRERELRRKHVMEVRQQPKSLKSKELQIKKQFQDTCKIQTRQYKALRNHLLETTPKSEHKAVLKRLKEEQTRKLAILAEQYDHSINEMLSTQALRLDEAQEAECQVLKMQLQQELELLNAYQSKIKMQAEAQHDRELRELEQRVSLRRALLEQKIEEEMLALQNERTERIRSLLERQAREIEAFDSESMRLGFSNMVLSNLSPEAFSHSYPGASSWSHNPTGGSGPHWGHPMGGTPQAWGHPMQGGPQPWGHPSGPMQGVPRGSSIGVRNSPQALRRTALGGRTEQGMSRSTSVTSQISNGSHMSYT
B2: (His)6TAO1(1-416) (protein)
chain: MRGSHHHHHHMPSTNRAGSLKDPEIAELFFKEDPEKLFTDLREIGHGSFGAVYFARDVRTNEVVAIKKMSYSGKQSTEKWQDIIKEVKFLQRIKHPNSIEYKGCYLREHTAWLVMEYCLGSASDLLEVHKKPLQEVEIAAITHGALQGLAYLHSHTMIHRDIKAGNILLTEPGQVKLADFGSASMASPANSFVGTPYWMAPEVILAMDEGQYDGKVDVWSLGITCIELAERKPPLFNMNAMSALYHIAQNESPTLQSNEWSDYFRNFVDSCLQKIPQDRPTSEELLKHMFVLRERPETVLIDLIQRTKDAVRELDNLQYRKMKKLLFQEAHNGPAVEAQEEEEEQDHGGGRTGTVNSVGSNQSIPSMSISASSQSSSVNSLPDASDDKSELDMMEGDHTVMSNSSVIHLKPEEENYQEEGDPRTRA

Experiments:
[1] = target: myc-tagged MEK3; experiment: cell-based or functional assay
[2] = target: (His)6MEK3
[3] = target: GST-MEK6 [GST: P08515]
[4] = target: MEK1
[5] = target: MEK2
[6] = target: Recombinant GST-MEK5 [GST: P08515]
[7] = target: GST-MEK4 [GST: P08515]; experiment: cell-based or functional assay

Binder	MEK3 activity in anti-myc immunoprecipitates from co-transfected 293 cells [1] [fold]	activity toward p38 of myc-tagged MEK3 immunoprecipitated from co-transfected 293 cells [1] [fold]	enhancement of the ability of MEK3 to phosphorylate p38 (in vitro linked kinase assay) [2]	increase of the ability of GST-MEK6 to phosphorylate (His)6p38 (in vitro linked kinase assay) [3]	activity of MEK1 towards the substrate (His)6ERK2 (in vitro linked kinase assay) [4]	activity of MEK2 towards the substrate (His)6ERK2 (in vitro linked kinase assay) [5]	phosphorylation of GST-MEK5 (in vitro kinase assay) [6]	activation of GST-MEK4 toward (His)6p38 (in vitro linked kinase assay) [7] [fold]	activation of GST-MEK4 towards GST-SAPKβ (in vitro linked kinase assay) [7] [fold]
B1	3 to 4	3							
B2			approximately 100-fold	by 5-fold	completely unable to increase the activity of MEK1 or MEK2 towards the substrate (His)6ERK2	completely unable to increase the activity of MEK1 or MEK2 towards the substrate (His)6ERK2	Recombinant GST-MEK5 was not phosphorylated by (His)6TAO1(1-416)	5	150
